In publication PMC12483203:

Molecular target: Hu-1 G614 S-6P homotrimer (SARS-CoV-2 Wuhan-Hu-1 D614G spike ectodomain, hexaproline-stabilised) (SARS-CoV-2) (UniProt P0DTC2)
Assay: SEC

Hu-1 G614 S-6P homotrimer (SARS-CoV-2 Wuhan-Hu-1 D614G spike ectodomain, hexaproline-stabilised) (from UniProt P0DTC2 14-1211) (natural protein)
stoichiometry N: 3
